Patent publication US20230121197A1, “ANTIBODIES SPECIFICALLY BINDING THE CARBOXYMETHYLATED CATALYTIC SUBUNIT OF PROTEIN PHOSPHATASE 2A” (Medizinische Universität Wien, priority 2020, published 2023)

Experiments:
[1] = molecular target: T1, PP2Ac C-terminal peptide meL309, ac-HVTRRTPDYFL-CH3 (α-carboxymethylated) (human, SMILES …); assay: ELISA (FIG. 4)
T1 construct: also called Y307-meL309; mePP2Ac
T1 peptide: Ac-HVTRRTPDYFL-OMe
Experimental: Nunc Medisorp 96-well ELISA flat-bottom plates were coated with peptides L309 (ac-[…]) (SEQ ID NO:18), meL309 (ac-[…]-CH₃) (SEQ ID NO:18) or amL309 (ac-[…]-NH₂) (SEQ ID NO:18) at 2 μg/ml in TBS at 4° C. over-night. After washing once with TBS, the wells were incubated with 2% BSA in TBS for 1 h at RT. After washing once with TBS, the wells were incubated with single clone hybridoma cell culture supernatant clone 7C10-C5 1:50 (˜1 μg/ml) in 1% BSA/TBS for 1 h at RT. After washing twice with TBS, wells were incubated with anti-mouse HRP-coupled secondary antibody for 1 h at RT, followed by washing 3× in PBS. Bound antibodies were detected by colorimetric reaction with 3,3′,5,5′-Tetramethylbenzidine as substrate, and absorbance was measured at 450 nm. Values were normalized to meL309 which was set to 1. Average and standard deviation of N=8 experiments are shown. Statistical significance was assessed using ANOVA followed by Tukey's HSD as a post-hoc test. P values are indicated with *, **, ***, which correspond to values of <0.05, <0.01, and <0.001. […]

[2] = molecular target: PP2Ac C-terminal peptide pT304-meL309, ac-HVTRRpTPDYFL-CH3 (human); assay: ELISA, peptide coated at 2 µg/ml, supernatant 1:50
[3] = molecular target: T2, mouse HA PP6c, carboxymethylated (immunoprecipitated from NIH3T3 cells) (mouse, UniProt Q9CQR6 1-305, C-terminal leucine α-carboxyl methyl ester (cellular methylation)); assay: Western blot of anti-HA immunoprecipitates from NIH3T3 cells, with quantification, N=3
T2 construct: mature; also called methylated PP6c; not shown: HA tag
T2 sequence (looked up): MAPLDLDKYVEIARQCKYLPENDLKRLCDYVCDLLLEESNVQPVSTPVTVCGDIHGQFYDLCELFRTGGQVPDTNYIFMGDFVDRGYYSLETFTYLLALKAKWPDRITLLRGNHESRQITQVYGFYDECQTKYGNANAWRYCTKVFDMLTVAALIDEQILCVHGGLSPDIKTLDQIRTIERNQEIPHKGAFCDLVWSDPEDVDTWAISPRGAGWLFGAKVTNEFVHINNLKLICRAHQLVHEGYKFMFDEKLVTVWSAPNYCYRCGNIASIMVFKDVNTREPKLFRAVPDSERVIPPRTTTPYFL
Excerpt: (A) Alignment of the C-termini of mammalian catalytic PP2Ac, PP4c and PP6c subunits (B) Immunoblotting of anti HA-immunoprecipitates of NIH3T3 cells either infected with retroviral supernatants of pBabe hygro (control) or pBabe hygro HA-PP2Ac (label “HA-PP2A), pBabe hygro HA-PP4c (label “HA-PP4”) or pBabe hygro HA-PP6c (label HA-PP6) using indicated antibodies. The label “7C10” refers to the 7C10-C5 monoclonal antibody. To equilibrate HA levels, 2 times more of the HA-PP4c and 3 times more of the HA-PP6c immunoprecipitates was loaded than HA-PP2Ac. The panel originates from 3 different blotting membranes for each antibody indicated in the panel. The blots are representative of N=3 independent immunoprecipitation experiments. The 2A10 and 7C10-C5 signals were quantified from N=3 independent experiments, normalized to the HA levels and the HA-PP2Ac signals were set to 1. Average and standard deviation (error bars) are shown. Statistical significance was assessed using ANOVA followed by Tukey's HSD as a post-hoc test. […]

B1: 7C10-C5 monoclonal antibody (antibody, V domains shown)
VH: DVQLQESGPGLVKPSQSLSLTCSVTGYSITSGYYWNWIRQFPGNKLEWMGYISYDGSNNYNPSLKNRISITRDTSKNQFFLKLNSVTTEDTATYYCAGRFAYWGQGTLVTVSA
VL: DVLMTQTPLSLPVSLGDQASISCRSSQSIVHSNGNTYLEWYLQKPGQSPKLLIYKVSNRFSGVPDRFSGSGSGTDFTLKINRVEAEDLGVYYCFQGSHVPWTFGGGTKLEIK
notes: Used as hybridoma culture supernatant (ELISA, Western blot, IHC) or at 50 µg/mL (SPR); also called 7C10 X63; clone 7C10-C5
For B1, the “fold stronger binding than to the amidated C-terminal part of PP2Ac (ELISA)” value [1] was 6.15 fold, the fold higher ELISA signal intensity than with the carboxymethylated peptide without phosphorylation (meL309) [2] was 1.6 fold and the binding result [3] was “no binding”.
